Source: patent US20250136952A1 (WISCONSIN ALUMNI RESEARCH FOUNDATION, published 2025)

Target: the molecule itself
Experiment: X-ray crystal structure of GmPDH1-NADP+-citrate, 1.69 A
Description: Crystals of GmPDH1 M219T/N222D formed in 16% (w/v) PEG 8000, 40 mM potassium phosphate dibasic, and 20% (v/v) glycerol. All crystals were flash-frozen in liquid nitrogen with mother liquor supplemented with 25% glycerol as a cryoprotectant.
The GmPDH1 structure was solved by single-wavelength anomalous dispersion (SAD) phasing. Diffraction data collected at beamline 19ID of the Argonne National Laboratory Advanced Photon Source were indexed, integrated, and scaled using HKL3000⁴⁸. SHELX⁴⁹ was used to determine initial SeMet positions and to estimate initial phases from the peak wavelength data set. SeMet positions and parameters were refined in MLPHARE⁵⁰. Solvent flattening was performed with DM⁵¹, and ARP/wARP⁵² was used to build an initial model. Iterative rounds of manual model building and refinement were performed with COOT⁵³ and PHENIX⁵⁴, respectively. The resulting model was used for molecular replacement into the higher resolution native data set using PHASER⁵⁵. Iterative rounds of manual model building and refinement, which included translation-libration-screen (TLS) models, used COOT and PHENIX, respectively. The native GmPDH1 structure was used for molecular replacement to solve the GmPDH1 N222D and GmPDH1 M219T/N222D structures. Each mutant structure was built and refined using the same method as the wild-type enzyme. […]

B1: Glycine max (soybean) prephenate dehydrogenase GmPDH1, wild type (enzyme)
chain: MSTSSSSQSLKIGIVGFGNFGQFLAKTMIKQGHTLTATSRSDYSELCLQMGIHFFRDVSAFLTADIDVIVLCTSILSLSEVVGSMPLTSLKRPTLFVDVLSVKEHPRELLLRELPEDSDILCTHPMFGPQTAKNGWTDHTFMYDKVRIRDEVICSNFIQIFATEGCKMVQMSCEEHDRAAAKSQFITHTIGRTLGEMDIQSTPIDTKGFETLVKLKETMMRNSFDLYSGLFVYNRFARQELENLEHALHKVKETLMIQRTNGEQGHKRTES
notes: also called Gm18g02650; 18g02650; not shown: N-terminal 6x-His tag from the pET28a vector
B1: binds.
